Experimental findings from paper PMC7110135, “Molecular flexibility of DNA as a key determinant of RAD51 recruitment” are described below.

As a reminder, the Kd is a measure of binding affinity in units of concentration. High values mean lower affinity, low ones higher affinity.

Series [1] addresses F86E RAD51 (human) (UniProt Q06609). The series can be described thus: SPR; Biotinylated ssDNA dT-50, dN-50, dA-50 and dsDNA dN-50p held on streptavidin-coated CM5 chips; F86E RAD51 injected at 30 uM; 37 C; same SPR running buffer with ATP and CaCl2. The protomer-protomer KD in solution is a single fit parameter of a simplified ODE polymerisation model, fitted to all four curves by ABC-SMC (n = 3). In general terms: In SPR one partner is held on a chip, and binding of the other changes the refractive index at the surface.

For series [2], the target named is T1, RAD51 WT (Homo sapiens, UniProt Q06609 1-339). Put plainly: SPR; ATP, Ca2+; faster association than dN-50; SPR (Biacore T200, streptavidin CM5): 150 mM KCl, 20 mM Hepes pH 7.5, 2 mM DTT, 5 mg/ml BSA, 2.5 mM ATP, 10 mM CaCl2, 10% glycerol, 37 C. The note with it: protein: recombinant; tags: untagged; chain copies: 10; label: 5' Biotin (C6).
Series [3] deals with T1, RAD51 WT. Put plainly: SPR; 150 nM RAD51, 2.5 mM ATP, 10 mM Ca2+; slower association than dN-50, similar lifetime; SPR (Biacore T200, streptavidin CM5): 150 mM KCl, 20 mM Hepes pH 7.5, 2 mM DTT, 5 mg/ml BSA, 2.5 mM ATP, 10 mM CaCl2, 10% glycerol, 37 C. Conditions: protein: recombinant; tags: untagged; chain copies: 16; label: 5' Biotin (C6) on strand 1; blunt.
Series [4] has as its target T1, RAD51 WT. Put plainly: SPR; ATP, Ca2+; SPR (Biacore T200, streptavidin CM5): 150 mM KCl, 20 mM Hepes pH 7.5, 2 mM DTT, 5 mg/ml BSA, 2.5 mM ATP, 10 mM CaCl2, 10% glycerol, 37 C. Conditions: protein: recombinant, tags: untagged.
Series [5] deals with T1, RAD51 WT. Put plainly: SPR; 3 uM RAD51, ATP, Ca2+; slightly faster association, slow dissociation; SPR (Biacore T200, streptavidin CM5): 150 mM KCl, 20 mM Hepes pH 7.5, 2 mM DTT, 5 mg/ml BSA, 2.5 mM ATP, 10 mM CaCl2, 10% glycerol, 37 C. The note with it: protein: recombinant; tags: untagged; chain copies: 10; label: 3' Biotin-TEG.
Series [6] has as its target T2, human wild-type (WT) RAD51 (human), Q06609.
T2 chain: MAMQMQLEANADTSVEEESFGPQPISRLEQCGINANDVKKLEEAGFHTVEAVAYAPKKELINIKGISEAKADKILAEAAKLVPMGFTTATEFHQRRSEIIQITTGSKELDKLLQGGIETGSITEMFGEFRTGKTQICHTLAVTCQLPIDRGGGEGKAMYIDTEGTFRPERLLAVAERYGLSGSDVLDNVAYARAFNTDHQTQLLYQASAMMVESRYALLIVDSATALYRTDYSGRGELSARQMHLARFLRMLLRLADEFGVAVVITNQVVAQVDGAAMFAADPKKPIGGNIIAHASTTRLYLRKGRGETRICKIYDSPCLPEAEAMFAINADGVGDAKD
The series can be described thus: SPR; Biotinylated ssDNA (dN-X) and dsDNA (dN-Xp) held on streptavidin-coated CM5 chips; WT RAD51 injected at 150 nM or 3 uM; 37 C; 150 mM KCl, 20 mM Hepes pH 7.5, 2 mM DTT, 5 mg/ml BSA, 2.5 mM ATP, 10 mM CaCl2, 10% glycerol. The protomer-protomer KD in solution is a single fit parameter of an ODE polymerisation model, fitted to all curves by ABC-SMC (n = 3). Conditions: remark: other sources report otherwise.

Series [7] concerns the target T1, RAD51 WT. Put plainly: SPR; 150 nM RAD51, 2.5 mM ATP, 10 mM Ca2+; faster association than dN-50p; SPR (Biacore T200, streptavidin CM5): 150 mM KCl, 20 mM Hepes pH 7.5, 2 mM DTT, 5 mg/ml BSA, 2.5 mM ATP, 10 mM CaCl2, 10% glycerol, 37 C. The note with it: protein: recombinant; tags: untagged; chain copies: 10; label: 5' Biotin (C6).
The target of series [8] is T1, RAD51 WT. The series can be described thus: SPR; 3 uM RAD51, ATP, Ca2+; faster association, slower dissociation than dN-8p; SPR (Biacore T200, streptavidin CM5): 150 mM KCl, 20 mM Hepes pH 7.5, 2 mM DTT, 5 mg/ml BSA, 2.5 mM ATP, 10 mM CaCl2, 10% glycerol, 37 C. The note with it: protein: recombinant; tags: untagged; chain copies: 16; label: 3' Biotin-TEG on strand 2; hairpin, two strands joined by (HEG)2, blunt.

[9] abbreviates: chain copies: 10, label: 3' Biotin-TEG.

In turn, “F86E RAD51 (from UniProt Q06609 1-339) (natural protein)” had a Kd in series [1] of 10.2 µM.
Consider TTTTTTTTTTTTTTTTTTTTTTTTTTTTTTTTTTTTTTTTTTTTTTTTTT (ssDNA) [ssDNA dT-50], for which, in series [2], the binding result is “binds”.

B1: dsDNA dN-50p (dsDNA)
DNA 1: TCGAGAGGGTAAACCACAATTATCGCCTACCCAAAACTATTTTATATCAA
DNA 2: TTGATATAAAATAGTTTTGGGTAGGCGATAATTGTGGTTTACCCTCTCGA
For B1, in series [3], the binding result is listed as “binds”.
In the case of CTGACTGC (ssDNA) [ssDNA dN-8], in series [4] (setting [9]), the binding result was “no binding”.

B2: dsDNA dN-5p (dsDNA)
DNA 1: CGGAC
DNA 2: GTCCG
modifications: two hexaethylene glycol linkers join 3' end of strand 1 to 5' end of strand 2
Regarding B2, in series [4] (chain copies: 16, label: 3' Biotin-TEG on strand 2, hairpin, two strands joined by (HEG)2, blunt), the binding result was “no binding”.
As to CGTCGATGAGCAGTGTC (ssDNA) [ssDNA dN-17], the binding result in series [5] is “binds”.

B3: human wild-type (WT) RAD51, Q06609 1-339 (natural protein)
chain: MAMQMQLEANADTSVEEESFGPQPISRLEQCGINANDVKKLEEAGFHTVEAVAYAPKKELINIKGISEAKADKILAEAAKLVPMGFTTATEFHQRRSEIIQITTGSKELDKLLQGGIETGSITEMFGEFRTGKTQICHTLAVTCQLPIDRGGGEGKAMYIDTEGTFRPERLLAVAERYGLSGSDVLDNVAYARAFNTDHQTQLLYQASAMMVESRYALLIVDSATALYRTDYSGRGELSARQMHLARFLRMLLRLADEFGVAVVITNQVVAQVDGAAMFAADPKKPIGGNIIAHASTTRLYLRKGRGETRICKIYDSPCLPEAEAMFAINADGVGDAKD
The molecule B3 came in with a Kd in series [6] of 0.00114 µM.
Take CGTCGATAGGC (ssDNA) [ssDNA dN-11]: the binding result in series [4] (setting [9]) is recorded as “no binding”.
As to TTGAGAGAGCAGACCACAATTATCACCTACACGACATCATTTTATATCAA (ssDNA) [ssDNA dN-50], the binding result in series [7] was “binds”.

B4: dsDNA dN-11p (dsDNA)
DNA 1: CGTCGATAGGC
DNA 2: GCCTATCGACG
modifications: two hexaethylene glycol linkers join 3' end of strand 1 to 5' end of strand 2
As to B4, the binding result in series [8] is recorded as “binds”.
As to CGGAC (ssDNA) [ssDNA dN-5], the binding result in series [4] (setting [9]) is recorded as “no binding”.
